Results published in patent US20220396632A1 (VERSEAU THERAPEUTICS, published 2022).
Non-standard residues stand in square brackets, D forms with d. No end group written: not given here. *: point of attachment. Biotin = O=C1N[C@H]2[C@H](CS[C@H]2CCCCC(=O)*)N1; sY = N[C@@H](Cc1ccc(OS(=O)(=O)O)cc1)C(=O)O

T1: Scrambled Y42,52,63(SO3) PSGL-1(42-62) biotin peptide (sulfotyrosine at peptide positions 1, 11 and 22; C-terminal Lys-biotin)
T1 peptide: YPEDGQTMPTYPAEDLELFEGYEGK

T2: Biotin Y46,48,51(SO3) PSGL-1(42-62) peptide (human, sulfotyrosine at Y46, Y48 and Y51; C-terminal Lys-biotin)
T2 construct: also called fully sulfated N-terminal PSGL-1 peptide
T2 peptide: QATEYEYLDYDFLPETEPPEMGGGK

T3: Biotin PSGL-1(42-62) peptide, unmodified (human, C-terminal Lys-biotin)
T3 construct: Residues 42-62 followed by GGGK-biotin; also called WT; wild-type
T3 peptide: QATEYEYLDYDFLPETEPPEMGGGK

T4: Sulfotyrosine CCR2b biotin peptide (human)
T4 construct: also called CCR2b peptide
T4 peptide: TTFFD[sY]D[sY]GAPSHGGK(Biotin)

T5: Human fibrinogen protein (ThermoFisher, RP-43142) (human, UniProt P02671 20-629; P02675 31-491; P02679 27-453, limits assumed, natural sulfotyrosines)
T5 construct: mature; Native dimer with 3 pairs of non-identical chains; also called gamma-fibrinogen; γ fibrinogen protein
T5 sequence (looked up) 1: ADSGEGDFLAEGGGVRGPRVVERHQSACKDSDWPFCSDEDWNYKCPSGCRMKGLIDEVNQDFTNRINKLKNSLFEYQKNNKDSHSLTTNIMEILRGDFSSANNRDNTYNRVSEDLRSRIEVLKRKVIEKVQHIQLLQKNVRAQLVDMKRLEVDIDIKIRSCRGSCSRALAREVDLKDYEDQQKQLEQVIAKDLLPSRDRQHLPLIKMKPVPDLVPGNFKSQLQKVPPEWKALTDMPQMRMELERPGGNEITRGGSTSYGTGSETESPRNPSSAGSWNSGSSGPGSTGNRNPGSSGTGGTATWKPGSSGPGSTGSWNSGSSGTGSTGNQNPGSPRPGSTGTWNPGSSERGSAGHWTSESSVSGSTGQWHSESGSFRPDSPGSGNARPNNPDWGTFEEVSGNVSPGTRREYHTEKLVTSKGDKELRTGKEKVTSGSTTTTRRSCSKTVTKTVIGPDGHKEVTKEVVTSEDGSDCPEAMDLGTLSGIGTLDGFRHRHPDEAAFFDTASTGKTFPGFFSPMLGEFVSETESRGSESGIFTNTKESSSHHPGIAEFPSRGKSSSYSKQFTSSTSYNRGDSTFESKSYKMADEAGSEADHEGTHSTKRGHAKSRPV
T5 sequence (looked up) 2: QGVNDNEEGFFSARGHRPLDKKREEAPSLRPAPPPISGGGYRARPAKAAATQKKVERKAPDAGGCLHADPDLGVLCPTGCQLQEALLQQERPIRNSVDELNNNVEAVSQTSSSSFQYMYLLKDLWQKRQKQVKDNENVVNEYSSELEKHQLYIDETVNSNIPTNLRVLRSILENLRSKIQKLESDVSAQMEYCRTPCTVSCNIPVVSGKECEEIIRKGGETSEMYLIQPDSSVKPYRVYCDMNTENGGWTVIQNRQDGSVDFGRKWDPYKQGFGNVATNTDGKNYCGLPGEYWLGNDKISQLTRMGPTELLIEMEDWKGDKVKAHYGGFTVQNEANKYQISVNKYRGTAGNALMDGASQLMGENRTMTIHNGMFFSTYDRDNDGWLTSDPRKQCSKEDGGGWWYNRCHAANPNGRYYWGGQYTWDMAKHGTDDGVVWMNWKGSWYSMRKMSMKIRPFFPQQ
T5 sequence (looked up) 3: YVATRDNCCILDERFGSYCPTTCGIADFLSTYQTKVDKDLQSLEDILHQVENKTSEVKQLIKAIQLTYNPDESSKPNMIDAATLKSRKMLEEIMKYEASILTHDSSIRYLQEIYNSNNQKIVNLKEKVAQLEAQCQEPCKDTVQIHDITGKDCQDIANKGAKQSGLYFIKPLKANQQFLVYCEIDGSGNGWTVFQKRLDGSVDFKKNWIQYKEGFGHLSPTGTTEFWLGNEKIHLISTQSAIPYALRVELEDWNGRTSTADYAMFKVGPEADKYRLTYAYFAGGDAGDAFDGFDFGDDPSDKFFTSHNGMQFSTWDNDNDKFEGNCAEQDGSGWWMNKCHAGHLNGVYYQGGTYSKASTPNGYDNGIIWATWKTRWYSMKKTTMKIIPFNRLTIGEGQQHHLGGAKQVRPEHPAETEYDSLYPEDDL

T6: SulfoCCK biotin peptide (human)
T6 construct: also called sulfotyrosine CCK peptide
T6 peptide: SHRISDRD[sY]MGWMDFGGK(Biotin)

T7: SulfoTyr C4 peptide (not fully specified; Y4, Y7 and Y9 sulfated (SO3); C-terminal biotin)
T7 construct: also called C4 alpha chain peptide; human sulfotyrosinylated C4 peptide
T7 peptide: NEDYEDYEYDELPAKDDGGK

T8: Sulfotyrosine D6 biotin peptide (human)
T8 construct: also called D6 peptide
T8 peptide: ENSSFY[sY][sY]D[sY]LDEVAFGGK(Biotin)

T9: Sulfotyr fibrinogen γ peptide (not fully specified; Y8 and Y12 sulfated (SO3); C-terminal biotin)
T9 construct: also called Fibrinogen gamma peptide; human sulfotyrosinylated fibrinogen peptide
T9 peptide: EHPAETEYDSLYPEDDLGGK

B1: 05A07 (antibody, IgG4, V domains shown)
VH: QVQLVQSGSEVKRPGASVKVSCKTSGYTFSNYGIAWVRQAPGQGLEWVGWVSAYNGKTGASQKLQGRVTMTTDRSTTTAYLELRSLQSDDTAVYYCARGVKGGLTGYARDYWGQGTLVIVSS
VL: DIVLTQSPRSLPVTLGQPASISCRSSQSLVNRAGDTYLNWFQQRPGQSPRRLIYKVSNRDSGVPDRFSGSGSGTDFTLKISRVEAEDVGVYYCMQGTQWPYTFGQGTKLEIK
B2: 02H08 (antibody, IgG4, V domains shown)
VH: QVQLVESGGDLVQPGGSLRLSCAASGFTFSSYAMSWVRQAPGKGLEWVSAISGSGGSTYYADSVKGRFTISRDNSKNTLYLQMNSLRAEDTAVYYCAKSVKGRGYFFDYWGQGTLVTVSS
VL: QSVLTQPPSVSAAPGQKVTISCSGSYFNIGNHYVSWYHQLPGTAPKLLIYDNNLRPSGIPDRFSASKSGTSATLGITGLQTGDEGDYYCGTWDSSLSGRVFGGGTKLTVL
B3: 06B02 (antibody, IgG4, V domains shown)
VH: QVQLVESGPGLVKPSETLSLTCTVSGVSVSSYYWTWVRQSPGKGLEWIGHVHHSGISNYNPSLKSRVVMSVDTSKNYFSLKLRSVTAADTAVYYCARGGPRISPTNWGQGTLVTVSS
VL: QPVLTQPPSVSKALRQTATLTCTGNSNNVGYQGATWLRQHQGHPPRLLSYRNNNRPSGISERFSASRSGNTATLTITGLQPDDEADYYCAAWDSSLSAWVFGGGTKLTVL
B4: 02G01 (antibody, IgG4, V domains shown)
VH: EVQLVQSGAEVKKPGASVKVSCKASGYTFTSYGISWVRQAPGQGLEWMGWISAYNGNTNYAQKLQGRVTMTTDTSTSTAYMELRSLRSDDTAVYYCARVTRLPGGGYAFDIWGQGTMVTVSL
VL: QSVLTQPPSASGTPGQRITISCSGSTSNIGNKHVYWYQQFPGAAPKLLIHNTNKRPSGVPDRFSGSKSGTSASLAISGLQSDDEADYYCAAWDGSLSAWVFGGGTKLTVL
B5: 03B01 (antibody, IgG4, V domains shown)
VH: QMQLVQSGAEVKKPGASVKVSCRASGYRFSTYAISWVRQAPGQGLEWIGWISTHHGNTKYAQKFQDRVTMTADASTSIAYMELRSLRSDDTAVYYCAAAIGNYWGQGTLVTVSS
VL: EIVLTQSPAILSVSPGERASLSCRASQSVSSKLAWYQQKPGQAPRLLIYGASTRATGIPPRFSGSGSGTDFTLTISSLEPEDFAVYYCQQRSNWPLTFGGGTKVEIK

Target: T1, Scrambled Y42,52,63(SO3) PSGL-1(42-62) …
Assay: ELISA, immobilized biotin peptide
Method in brief: (§1)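 In this ELISA, half-well high binding plates (Corning Cat. #3690) received 3 ug/mL/25 ul per well of biotin-tagged PSGL-1 peptides covering residues 42 to 62, diluted in PBS, pH 7.4, and coated overnight at 4° C. Duplicate readings for each antibody were averaged and the average assay background was subtracted. PSGL-1 protein or peptide was the positive control.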

Binder	binding result	A450nm, 20 nM mAb
B1	no binding (tested: 20 nM)	
B2	no binding (tested: 20 nM)	0.03 A450nm
B3	no binding (tested: 20 nM)	
B4	no binding (tested: 20 nM)	
B5	no binding (tested: 20 nM)	0.04 A450nm

Target: T2, Biotin Y46,48,51(SO3) PSGL-1(42-62) …
Assay: ELISA, immobilized biotin peptide
Method in brief: as §1

Binder	A450nm, 20 nM mAb	EC50
B1	2.44 A450nm	
B2	2.45 A450nm	1.6 nM
B3	2.57 A450nm	
B4	2.72 A450nm	0.03 nM
B5	2.62 A450nm	0.04 nM

Target: T3, Biotin PSGL-1(42-62) peptide, unmodified
Assay: ELISA, immobilized biotin peptide
Method in brief: as §1

Binder	A450nm, 20 nM mAb	EC50
B1	0.17 A450nm	
B2		> 500 nM
B3	0.37 A450nm	
B4		3.8 nM
B5		~500 nM

Each binder was assayed against T10, Cynomolgus PSGL-1(ECD)-hFc1 (cynomolgus macaque) (assay: ELISA, plate cyno PSGL-1(ECD)-Fc).
T10 construct: also called Cyno PSGL1-Fc; Cyno PSGL-1(ECD)-Fc
Protocol: Antibody binding to plate-immobilized cyno PSGL-1(ECD) was determined either at one concentration (20 nM) or by generating full antibody binding curves (0.003-200 nM). A typical ELISA was performed by overnight coating at 4° C. with 3 ug/mL/25 ul per well of recombinant cyno PSGL-1(ECD) protein in PBS, pH 7.4, in high binding half-well plates (Corning Cat. #3690). […] Anti-PSGL-1 IgG in assay buffer (blocking buffer containing 0.05% tween 20) was added into test and control wells (20 nM/25 ul/well) and the plate incubated for 45 min at 37° C. […] The plate was incubated for 45 min at 37° C., and mAb bound to plate-immobilized target determined at A450 nm using HRP substrate (3,3′,5,5′-tetramethylbenzidine (TMB)). For each antibody, duplicate values were averaged and assay background subtracted.

Binder	binding result
B1	no binding (tested: 20 nM)
B2	no binding (tested: 20 nM)
B3	no binding (tested: 20 nM)
B4	no binding (tested: 20 nM)
B5	no binding (tested: 20 nM)

Target: T4, Sulfotyrosine CCR2b biotin peptide
Assay: ELISA, 50 nM mAb
Protocol: (§2) Recombinant PSGL-1-hFc1 chimera protein consisting of PSGL-1's extracellular domain (ECD) served as a positive control. […] Primary antibody was added (25 ul per well) in duplicate at 50 nM in assay buffer (blocking buffer containing 0.05% Tween®20) into test and control (just blocked) wells and the plate incubated for 45 min at 37° C.

Binder	binding normalized to PSGL-1
B1	1.09
B2	1.32
B3	0.61
B4	0.78
B5	1.1

The binders below were run against T5, Human fibrinogen protein (ThermoFisher, …) (assay: ELISA, 50 nM mAb).
Protocol: as §2

Binder	binding normalized to PSGL-1
B1	0.53
B2	0.11
B3	0.03
B4	0.07
B5	0.11

Target: T6, SulfoCCK biotin peptide
Assay: ELISA, 50 nM mAb
Protocol: as §2

Binder	binding normalized to PSGL-1
B1	1.17
B2	1.27
B3	0.78
B4	1.1
B5	1.14

Target: T7, SulfoTyr C4 peptide
Assay: ELISA, 50 nM mAb
Protocol: as §2

Binder	binding normalized to PSGL-1
B1	1.15
B2	1.34
B3	0.97
B4	0.94
B5	1.15

Each binder was assayed against T11, Human complement C4 protein (Millipore Sigma, Cat. 204886) (human, UniProt P0C0L4 20-675; P0C0L4 680-1446; P0C0L4 1454-1744, limits assumed, natural sulfotyrosines) (assay: ELISA, 50 nM mAb).
T11 construct: mature
Protocol: as §2

T11 sequence (P0C0L4 20-675 limits assumed, form in doubt, chain 1 of 3): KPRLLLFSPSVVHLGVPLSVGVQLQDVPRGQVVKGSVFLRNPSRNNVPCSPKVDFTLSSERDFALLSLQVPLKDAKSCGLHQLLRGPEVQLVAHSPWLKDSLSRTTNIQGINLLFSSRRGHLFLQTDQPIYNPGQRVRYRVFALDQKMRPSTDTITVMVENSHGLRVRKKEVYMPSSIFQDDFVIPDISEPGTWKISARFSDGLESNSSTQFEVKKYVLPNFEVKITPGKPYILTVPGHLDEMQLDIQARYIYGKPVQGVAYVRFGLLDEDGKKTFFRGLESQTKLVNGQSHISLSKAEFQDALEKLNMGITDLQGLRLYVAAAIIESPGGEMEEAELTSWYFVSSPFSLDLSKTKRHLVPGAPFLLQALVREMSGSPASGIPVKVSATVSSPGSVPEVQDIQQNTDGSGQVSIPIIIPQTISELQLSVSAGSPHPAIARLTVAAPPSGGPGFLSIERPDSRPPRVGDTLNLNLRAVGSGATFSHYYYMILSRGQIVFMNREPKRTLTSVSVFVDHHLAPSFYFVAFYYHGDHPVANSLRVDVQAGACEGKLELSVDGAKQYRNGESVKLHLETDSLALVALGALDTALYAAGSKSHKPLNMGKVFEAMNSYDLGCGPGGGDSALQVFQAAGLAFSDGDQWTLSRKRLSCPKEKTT
T11 sequence (P0C0L4 680-1446 limits assumed, form in doubt, chain 2 of 3): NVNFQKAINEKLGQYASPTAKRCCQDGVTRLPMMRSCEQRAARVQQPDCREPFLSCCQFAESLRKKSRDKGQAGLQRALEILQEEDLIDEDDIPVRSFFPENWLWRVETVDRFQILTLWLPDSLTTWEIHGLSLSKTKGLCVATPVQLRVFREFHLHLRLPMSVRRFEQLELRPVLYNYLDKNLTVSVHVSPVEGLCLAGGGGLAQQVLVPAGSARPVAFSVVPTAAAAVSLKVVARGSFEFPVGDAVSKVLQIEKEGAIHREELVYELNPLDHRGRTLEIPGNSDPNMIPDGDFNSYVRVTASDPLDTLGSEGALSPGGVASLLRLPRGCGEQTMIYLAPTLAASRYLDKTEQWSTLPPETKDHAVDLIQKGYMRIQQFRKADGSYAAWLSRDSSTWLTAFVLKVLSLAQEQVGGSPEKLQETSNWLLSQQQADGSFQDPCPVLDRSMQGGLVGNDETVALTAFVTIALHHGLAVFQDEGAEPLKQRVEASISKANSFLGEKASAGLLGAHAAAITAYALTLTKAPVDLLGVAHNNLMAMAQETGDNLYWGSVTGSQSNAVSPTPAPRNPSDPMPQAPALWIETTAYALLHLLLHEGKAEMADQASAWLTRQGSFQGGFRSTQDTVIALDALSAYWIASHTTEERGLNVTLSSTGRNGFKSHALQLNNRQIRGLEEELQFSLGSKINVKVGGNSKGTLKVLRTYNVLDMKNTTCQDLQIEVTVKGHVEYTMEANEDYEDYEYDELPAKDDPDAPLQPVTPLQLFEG
T11 sequence (P0C0L4 1454-1744 limits assumed, form in doubt, chain 3 of 3): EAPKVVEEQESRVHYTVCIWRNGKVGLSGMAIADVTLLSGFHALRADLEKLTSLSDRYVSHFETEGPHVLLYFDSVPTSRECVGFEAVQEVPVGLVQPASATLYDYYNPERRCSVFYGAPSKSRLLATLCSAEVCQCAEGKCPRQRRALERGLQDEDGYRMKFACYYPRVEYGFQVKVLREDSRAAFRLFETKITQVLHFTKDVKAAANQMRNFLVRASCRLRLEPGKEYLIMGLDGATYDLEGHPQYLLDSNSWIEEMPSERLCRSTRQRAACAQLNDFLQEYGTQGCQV

Binder	binding normalized to PSGL-1
B1	1.13
B2	0.94
B3	1.09
B4	0.58
B5	1.1

Target: T8, Sulfotyrosine D6 biotin peptide
Assay: ELISA, 50 nM mAb
Protocol: as §2

Binder	binding normalized to PSGL-1
B1	1.22
B4	0.69

Target: T9, Sulfotyr fibrinogen γ peptide
Assay: ELISA, 50 nM mAb
Protocol: as §2

Binder	binding normalized to PSGL-1
B1	1.22
B2	1.34
B3	1.22
B4	0.97
B5	1.23
